Earlier results in paper PMC2794832 (Journal of nuclear medicine : official publication, Society …, 2008).

System: tumors of HEK cells stably transfected to express only SSTR2
Conditions: mouse, in vivo

Substance: ^111In-1,4,7,10-tetraazacyclododecane-1,4,7,10-tetraacetic acid-sst2-ANT [^111In-DOTA-sst2-ANT]
- uptake of the radiopharmaceutical in tumors: high uptake
